PPRE-driven luciferase reporter in HEK293 cells activated by ectopic PPARα; reduction by expression of CtBP2 data for one substance are collected here from paper PMC10339064.

The experiment deals with Peroxisome proliferator-activated receptor alpha (PPARα), wild type, FLAG-tagged (human) (UniProt Q07869).
Chain of UniProt Q07869 (Q07869 whole entry): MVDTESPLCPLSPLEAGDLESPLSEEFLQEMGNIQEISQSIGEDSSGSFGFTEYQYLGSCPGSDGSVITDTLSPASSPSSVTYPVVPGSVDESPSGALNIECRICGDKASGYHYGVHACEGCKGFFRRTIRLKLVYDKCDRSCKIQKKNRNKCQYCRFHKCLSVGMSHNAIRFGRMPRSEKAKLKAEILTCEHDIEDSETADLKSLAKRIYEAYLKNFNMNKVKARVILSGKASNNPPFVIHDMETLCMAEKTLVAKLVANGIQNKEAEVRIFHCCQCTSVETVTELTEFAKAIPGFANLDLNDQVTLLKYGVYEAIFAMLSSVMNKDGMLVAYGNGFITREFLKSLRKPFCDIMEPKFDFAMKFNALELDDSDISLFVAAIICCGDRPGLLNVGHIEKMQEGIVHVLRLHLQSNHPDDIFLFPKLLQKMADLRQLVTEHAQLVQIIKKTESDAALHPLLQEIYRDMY

Substance “C-terminal binding protein 2 (CtBP2), wild type, HA-tagged (from UniProt P56545 1-445) (natural protein)” yielded a PPRE-driven luciferase reporter in HEK293 cells activated by ectopic PPARα; reduction by expression of CtBP2 of 53%.
